Data on one protein can be found in publication doi:10.1101/2023.02.03.526835 (bioRxiv, 2023).

The data set concerns the molecule itself. Nature of the data set: cryo-EM structure.

B1: Lcb2 (enzyme, S. cerevisiae)
chain: MSTPANYTRVPLCEPEELPDDIQKENEYGTLDSPGHLYQVKSRHGKPLPEPVVDTPPYYISLLTYLNYLILIILGHVHDFLGMTFQKNKHLDLLEHDGLAPWFSNFESFYVRRIKMRIDDCFSRPTTGVPGRFIRCIDRISHNINEYFTYSGAVYPCMNLSSYNYLGFAQSKGQCTDAALESVDKYSIQSGGPRAQIGTTDLHIKAEKLVARFIGKEDALVFSMGYGTNANLFNAFLDKKCLVISDELNHTSIRTGVRLSGAAVRTFKHGDMVGLEKLIREQIVLGQPKTNRPWKKILICAEGLFSMEGTLCNLPKLVELKKKYKCYLFIDEAHSIGAMGPTGRGVCEIFGVDPKDVDILMGTFTKSFGAAGGYIAADQWIIDRLRLDLTTVSYSESMPAPVLAQTISSLQTISGEICPGQGTERLQRIAFNSRYLRLALQRLGFIVYGVADSPVIPLLLYCPSKMPAFSRMMLQRRIAVVVVAYPATPLIESRVRFCMSASLTKEDIDYLLRHVSEVGDKLNLKSNSGKSSYDGKRQRWDIEEVIRRTPEDCKDDKYFVN
modifications: pyridoxal 5'-phosphate (PLP) as internal aldimine with K366
As for B1, the binding result is “binds”.
